The target of experiment [1] is T1, recombinant human VISTA (His-tagged) (human, UniProt Q9H7M9 33-194).
T1 construct: bought soluble protein (Sino Biological); also called hVISTA; human VISTA polypeptide
The experiment can be described thus: ELISA, target protein coated, A450 against log M of antibody. A general note: In an ELISA, binding on a coated surface is turned into a signal by an enzyme label.

In the next experiment the target is T2, human B7H3 (human, UniProt Q5ZPR3 29-461, limits assumed).
T2 construct: also called CD276
T2 sequence (looked up): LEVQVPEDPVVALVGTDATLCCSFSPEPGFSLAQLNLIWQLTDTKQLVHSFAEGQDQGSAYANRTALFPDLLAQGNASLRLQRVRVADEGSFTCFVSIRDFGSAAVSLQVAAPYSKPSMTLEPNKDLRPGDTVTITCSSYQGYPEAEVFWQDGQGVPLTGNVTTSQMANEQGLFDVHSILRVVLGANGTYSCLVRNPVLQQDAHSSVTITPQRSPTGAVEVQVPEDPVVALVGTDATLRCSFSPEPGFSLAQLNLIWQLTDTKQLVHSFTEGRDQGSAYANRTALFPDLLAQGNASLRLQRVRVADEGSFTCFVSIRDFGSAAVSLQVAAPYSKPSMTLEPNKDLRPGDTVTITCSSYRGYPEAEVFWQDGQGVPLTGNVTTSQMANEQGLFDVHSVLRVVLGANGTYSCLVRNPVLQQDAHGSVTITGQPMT
The description is as above.

The next experiment concerns the target human CTLA4 (human, UniProt P16410 36-162). The experiment is described as above.
For experiment [2], the target named is T1, recombinant human VISTA (His-tagged). As to the kind of experiment: BLI (Octet), 1:1 global fit, His-tagged human VISTA captured.
The target in experiment [3] is T3, recombinant mouse VISTA (His-tagged) (mouse, UniProt Q9D659 33-191).
T3 construct: also called murine VISTA; mVISTA
T3 sequence (looked up): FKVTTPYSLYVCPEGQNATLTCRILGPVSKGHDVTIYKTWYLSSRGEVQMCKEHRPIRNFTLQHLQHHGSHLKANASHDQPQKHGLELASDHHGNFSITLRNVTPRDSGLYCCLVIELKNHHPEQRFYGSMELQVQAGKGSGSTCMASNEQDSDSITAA
The experiment can be described thus: BLI (Octet QK384): His-tagged murine VISTA on anti-Penta-HIS tips, V4 666.5 to 41.7 nM as analyte, global fit.
Description: (§1) All measurements were performed at 25° C. with agitation at 1000 rpm. Kinetic measurements for antigen binding were performed by loading anti-VISTA antibody at different concentrations (indicated in the Figures) for 120 s, followed by a 120 s dissociation time by transferring the biosensors into assay buffer containing wells. Sensograms were referenced for buffer effects and then fitted using the Octet QK384 user software (Pall ForteBio, USA).
(§2) Kinetic responses were subjected to a global fitting using a one site binding model to obtain values for association (kon), dissociation (koff) rate constants and the equilibrium dissociation constant (KD). Only curves that could be reliably fitted with the software (R²>0.90) were included in the analysis.

The target of experiment [4] is T4, recombinant cynomolgus macaque VISTA (His-tagged) (cynomolgus macaque, UniProt A0A7N9IB00 33-194).
T4 construct: also called cyno VISTA; cynomolgus monkey VISTA
As to the kind of experiment: BLI (Octet QK384): His-tagged cynomolgus VISTA on anti-Penta-HIS tips, V4 1433 to 179.1 nM as analyte, global fit. A general note: In BLI a coated tip is dipped into the sample, and binding shifts an interference pattern.
Description: as §1, §2

The target of experiment [5] is T5, recombinant rat VISTA (His-tagged) (rat, UniProt A0ABK0L5H3 33-192).
T5 sequence: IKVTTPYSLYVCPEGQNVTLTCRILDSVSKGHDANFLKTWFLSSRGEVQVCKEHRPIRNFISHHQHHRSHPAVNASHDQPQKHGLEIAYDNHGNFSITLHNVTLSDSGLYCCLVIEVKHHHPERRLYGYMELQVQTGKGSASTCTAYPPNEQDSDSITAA
As to the kind of experiment: ELISA, VISTA-HIS protein coated; ELISA, rat VISTA-HIS.
Description: (§3) 384-well plates were coated with 1 μg/ml of target antigen diluted in PBS for 16 hrs at 4° C. […] After washing, plates were developed with colorimetric detection substrate 3,3′,5,5′-tetramethylbenzidine (Turbo-TMB; Pierce) for 10 min.

The target of experiment [6] is T1, recombinant human VISTA (His-tagged). As to the kind of experiment: antigen-binding ELISA; HMBD-002 in F1, day 10 at 40°C.
Experiment [7] has the same target. As to the kind of experiment: antigen-binding ELISA; HMBD-002 in F1, day 30 at 40°C.
The target is the same in experiment [8]. The experiment can be described thus: antigen-binding ELISA; HMBD-002 in F4, day 20 at 40°C.
The target is the same in experiment [9]. The experiment can be described thus: antigen-binding ELISA; HMBD-002 in F5, day 30 at 40°C.
Experiment [10] shares this target. As to the kind of experiment: antigen-binding ELISA; HMBD-002 in F6, day 20 at 40°C.
For experiment [11] the target is unchanged. The experiment can be described thus: antigen-binding ELISA; HMBD-002 in F8, day 30 at 40°C.
The target is the same in experiment [12]. The experiment can be described thus: antigen-binding ELISA; HMBD-002 10 mg/mL in F10, day 0.
A further experiment deals with T6, human B7H7 (human, UniProt Q9UM44 23-344).
T6 construct: also called HHLA2
T6 sequence (looked up): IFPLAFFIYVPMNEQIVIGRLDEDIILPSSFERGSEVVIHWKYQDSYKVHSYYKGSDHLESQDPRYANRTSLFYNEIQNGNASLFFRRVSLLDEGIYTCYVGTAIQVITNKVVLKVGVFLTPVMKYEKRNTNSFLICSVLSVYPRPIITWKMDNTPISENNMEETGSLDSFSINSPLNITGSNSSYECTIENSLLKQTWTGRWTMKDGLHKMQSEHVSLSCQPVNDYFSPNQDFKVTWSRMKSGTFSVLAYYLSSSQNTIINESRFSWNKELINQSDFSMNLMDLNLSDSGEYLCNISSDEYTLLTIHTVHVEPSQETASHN
The experiment can be described thus: ELISA, plate coated with human B7H7, antibody titrated.

A further experiment deals with human PD-1 (human, UniProt Q15116 25-167). As to the kind of experiment: ELISA, plate coated with human PD-1, antibody titrated.
Experiment [13] has as its target T4, recombinant cynomolgus macaque VISTA …. As to the kind of experiment: ELISA, NHP VISTA-HIS protein coated; ELISA, NHP (cynomolgus) VISTA-HIS.
Description: as §3

A value given as a limit tells only on which side of the number the result lay.

human PD-1, sequence (Q15116 25-167 limits assumed): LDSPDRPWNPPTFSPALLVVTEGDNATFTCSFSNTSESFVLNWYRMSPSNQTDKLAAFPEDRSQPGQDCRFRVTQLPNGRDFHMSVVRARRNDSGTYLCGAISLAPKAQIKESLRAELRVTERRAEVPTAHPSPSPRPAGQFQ
human CTLA4, sequence (P16410 36-162 limits assumed): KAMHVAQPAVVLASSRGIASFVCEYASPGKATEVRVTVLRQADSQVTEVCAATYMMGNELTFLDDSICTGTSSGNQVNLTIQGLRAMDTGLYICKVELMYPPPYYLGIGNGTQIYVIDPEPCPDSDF
Description for human B7H7: as §3
Description for human PD-1: as §3

B1: anti-VISTA clone 4M2-C12 IgG1 (antibody)
heavy: not shown
light: DIVITQTPAILSTSPGEKVTMTCRASSSVGYIHWYQQKPGSSPKPWIYATSNLASGVPARFSGSGSGTSNSLTITRVEAEDAATYYCQQWSSYPPITFGGGTKLEVKRTVAAPSVFIFPPSDEQLKSGTASVVCLLNNFYPREAKVQWKVDNALQSGNSQESVTEQDSKDSTYSLSSTLTLSKADYEKHKVYACEVTHQGLSSPVTKSFNRGEC
notes: mouse variable regions on human IgG1/kappa constant regions; also called V4; V4pr
As a reminder, the EC50 (read off the curve) is the concentration that produces a half-maximal response. What is called Kd is the concentration at which binding is half-saturated. As usually defined, the koff is a measure of how fast the partners let go of each other. Broadly, the kon is the rate constant with which the complex forms. Take B1: the “EC50 (read off the curve)” value in experiment [1] was approximately 0.01 nM. For the same molecule, the binding result with human B7H3 and with human CTLA4 was “no binding (tested: about 10^-7.5 M (log M axis))” each time. In experiment [2], the Kd is less than 0.001 nM. The off-rate constant (koff) in [2] was less than 1e-07 s⁻¹; in experiment [3], 0.00445 s⁻¹; in experiment [4] it was less than 1e-07 s⁻¹. The kon in experiment [2] was 128000 M⁻¹ s⁻¹; in experiment [3], 39500 M⁻¹ s⁻¹; in [4] it was 40200 M⁻¹ s⁻¹.

B2: V4-C26 hIgG4 (antibody)
heavy: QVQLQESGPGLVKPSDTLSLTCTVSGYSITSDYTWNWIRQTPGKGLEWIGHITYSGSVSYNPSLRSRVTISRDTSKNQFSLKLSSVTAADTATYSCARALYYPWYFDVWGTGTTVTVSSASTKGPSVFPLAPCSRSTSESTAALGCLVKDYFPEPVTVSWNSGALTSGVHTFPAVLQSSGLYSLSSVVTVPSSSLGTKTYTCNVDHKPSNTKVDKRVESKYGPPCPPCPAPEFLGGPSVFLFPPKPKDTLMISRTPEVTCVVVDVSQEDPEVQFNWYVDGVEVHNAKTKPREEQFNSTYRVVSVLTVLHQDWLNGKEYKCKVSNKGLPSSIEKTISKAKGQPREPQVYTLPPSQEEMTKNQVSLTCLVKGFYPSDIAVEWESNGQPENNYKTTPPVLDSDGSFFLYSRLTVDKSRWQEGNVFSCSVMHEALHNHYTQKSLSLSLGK
light: EIVLTQSPATLSLSPGERATLSCRASSSVGYIHWYQQKPGQAPRPIIYTTSNRATGIPARFSGSGSGTDNTLTISSLEPEDSAVYYCQQWSSYPPITFGGGTKLEVKRTVAAPSVFIFPPSDEQLKSGTASVVCLLNNFYPREAKVQWKVDNALQSGNSQESVTEQDSKDSTYSLSSTLTLSKADYEKHKVYACEVTHQGLSSPVTKSFNRGEC
notes: human IgG4 (S228P)/kappa format; also called HMBD-002; HMBD-002-V4C26
As usually defined, the EC50 is the concentration at which the effect is half-maximal. In the case of B2, the EC50 in [5] was determined as 0.00669 nM; in [6], 0.0306 nM; in experiment [7] it was 0.0215 nM; in [8], 0.0205 nM; in experiment [9], 0.0223 nM; in [10] it was 0.0186 nM. Further, the results for the concentration for a half-maximal effect (EC50) in experiment [11], in [12] and in experiment [13] were 0.0227 nM, 0.0321 nM and 0.0121 nM, respectively. Also, the binding result with human B7H7 and with human PD-1 was “no binding (tested: about 3e-8 M)” in each case.
